We go through four molecules from PMC2848554, “Topology and Organization of the Salmonella typhimurium Type III Secretion Needle Complex Components” (PLoS Pathogens, 2010).

As a reminder, the stoichiometry N is a count of units in the complex or per binding partner.

First the molecules themselves.
B1: PrgK (natural protein)
chain: CKDKDLLKGLDQEQANEVIAVLQMHNIEANKIDSGKLGYSITVAEPDFTAAVYWIKTYQLPPRPRVEIAQMFPADSLVSSPRAEKARLYSAIEQRLEQSLQTMEGVLSARVHISYDIDAGENGRPPKPVHLSALAVYERGSPLAHQISDIKRFLKNSFADVDYDNISVVLSERSDAQLQAPGTPVKRNSFATSWIVLIILLSVMSAGFGVWYYKNHYARNKKGITADDKAKSSNE
modifications: lipoprotein; lipidated N-terminal cysteine (Cys-18)
notes: PrgK, lipoprotein of the SPI-1 needle complex base, S. typhimurium; predicted transmembrane domain 207-227; printed residue numbers include the signal peptide; Stood in the assays as a subunit of the purified needle complex or its substructures; source: endogenous, S. typhimurium strains SB905 (w.t.), SB1171 (ΔinvG) and SB906 complemented with plasmid-borne PrgH; purified within needle complexes
B2: PrgH (natural protein)
chain: METSKEKTITSPGPYIVRLLNSSLNGCEFPLLTGRTLFVVGQSDALTASGQLPDIPADSFFIPLDHGGVNFEIQVDTDATEIILHELKEGNSESRSVQLNTPIQVGELLILIRPESEPWVPEQPEKLETSAKKNEPRFKNGIVAALAGFFILGIGTVGTLWILNSPQRQAAELDSLLGQEKERFQVLPGRDKMLYVAAQNERDTLWARQVLARGDYDKNARVINENEENKRISIWLDTYYPQLAYYRIHFDEPRKPVFWLSRQRNTMSKKELEVLSQKLRALMPYADSVNITLMDDVTAAGQAEAGLKQQALPYSRRNHKGGVTFVIQGALDDVEILRARQFVDSYYRTWGGRYVQFAIELKDDWLKGRSFQYGAEGYIKMSPGHWYFPSPL
notes: PrgH, inner ring protein of the SPI-1 type III secretion needle complex, S. typhimurium; wild-type chromosomal allele; the N-terminal amino group of Met-1 (peptide METSK) was cross-linked; predicted transmembrane domain 142-162; Stood in the assays as a subunit of the whole purified needle complex or of the ΔinvG substructure, not as an isolated protein; source: endogenous, S. typhimurium strains …
B3: PrgH mutant lacking its last 4 amino acids (PrgH^Δ4) (domain or fragment)
chain: METSKEKTITSPGPYIVRLLNSSLNGCEFPLLTGRTLFVVGQSDALTASGQLPDIPADSFFIPLDHGGVNFEIQVDTDATEIILHELKEGNSESRSVQLNTPIQVGELLILIRPESEPWVPEQPEKLETSAKKNEPRFKNGIVAALAGFFILGIGTVGTLWILNSPQRQAAELDSLLGQEKERFQVLPGRDKMLYVAAQNERDTLWARQVLARGDYDKNARVINENEENKRISIWLDTYYPQLAYYRIHFDEPRKPVFWLSRQRNTMSKKELEVLSQKLRALMPYADSVNITLMDDVTAAGQAEAGLKQQALPYSRRNHKGGVTFVIQGALDDVEILRARQFVDSYYRTWGGRYVQFAIELKDDWLKGRSFQYGAEGYIKMSPGHWYF
notes: PrgH of S. typhimurium without its last 4 amino acids; also called C-terminal truncated PrgH; source: S. typhimurium SB906 (chromosomal ΔprgH) complemented with a pWSK29 plasmid, natural promoter; purified within needle complexes; copies: 24
B4: InvG (natural protein)
chain: SEKIPVTGSGFVAKDDSLRTFFDAMALQLKEPVIVSKMAARKKITGNFEFHDPNALLEKLSLQLGLIWYFDGQAIYIYDASEMRNAVVSLRNVSLNEFNNFLKRSGLYNKNYPLRGDNRKGTFYVSGPPVYVDMVVNAATMMDKQNDGIELGRQKIGVMRLNNTFVGDRTYNLRDQKMVIPGIATAIERLLQGEEQPLGNIVSSEPPAMPAFSANGEKGKAANYAGGMSLQEALKQNAAAGNIKIVAYPDTNSLLVKGTAEQVHFIEMLVKALDVAKRHVELSLWIVDLNKSDLERLGTSWSGSITIGDKLGVSLNQSSISTLDGSRFIAAVNALEEKKQATVVSRPVLLTQENVPAIFDNNRTFYTKLIGERNVALEHVTYGTMIRVLPRFSADGQIEMSLDIEDGNDKTPQSDTTTSVDALPEVGRTLISTIARVPHGKSLLVGGYTRDANTDTVQSIPFLGKLPLIGSLFRYSSKNKSNVVRVFMIEPKEIVDPLTPDASESVNNILKQSGAWSGDDKLQKWVRVYLDRGQEAIK
notes: InvG, secretin of the SPI-1 needle complex (outer rings and neck), S. typhimurium; processed InvG starts at Ser-25; printed residue numbers include the signal peptide; Stood in the assays as a subunit of the purified needle complex; source: endogenous, S. typhimurium strain SB905 (w.t.) and SB906 complemented with plasmid-borne PrgH; purified within needle complexes

Data set [1] has as its target B3. The experiment in a line: negative-stain electron microscopy, single particle analysis; purified needle complexes incubated in 10 mM sodium phosphate pH 10.4 (legend: pH 10.5), 0.5 M NaCl, 0.1% LDAO, 15 min at 37°C, sucrose gradient, then negative stain (PTA or NanoVan); no symmetry imposed, rotational cross-correlation. The conditions noted are these: both partners purified.

Data set [2] concerns the molecule itself. Described as above.
The data set “PrgH” has as its target B2. Kind of data set: cross-linking; sucrose gradient purified whole needle complexes (about 1 mg/ml, w.t. strain SB905) on ice with 200 µM BS2G-d0/d4 for 30 or 60 min; single particles re-purified on sucrose gradients; tryptic digestion in solution, high-resolution mass spectrometry, xQuest score above 15. The conditions noted are these: both partners purified.

Data set [3] deals with B4. The data set is described as above. The following applies: both partners purified.
Data set [4] concerns the target B4. The experiment in a line: negative-stain electron microscopy; purified needle complexes of the PrgH^Δ4 strain, without high pH treatment; negative stain. The conditions noted are these: both partners purified.
Data set [5] deals with the molecule itself. Kind of data set: cryo electron microscopy, single particle class averages; purified complexes from wild type and ΔinvG strains, vitrified; two-dimensional class averages and their density difference.

As for B1, the binding result (in data set [1]; in the data set with PrgH) was “binds” in each case. In addition, the “stoichiometry N” value in data set [2] turned out to be 24.
As for B2, the binding result with InvG [3] was “binds”.
As to B3, the “stoichiometry N” value in data set [2] came to 24. Besides, the binding result with InvG [4] is recorded as “binds”.
With B4, the binding result in data set [5] is listed as “binds”.
